Experimental data from the supplement of paper PMC9170038.

System: MS2 coat protein
Experiment: apparent KD of MS2 coat protein; designed switch direction (-1 OFF switch, 1 ON switch): 1; higher = weaker reporter binding
Outline: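 Designed RNA switches with common flanks were transcribed on Illumina chips by stalled E. coli RNA polymerase and titrated with SNAP-549-labelled MS2 coat protein, from 0.7 or 1.5 nM doubling to 3 µM, in Tris-HCl pH 7.5 buffer with KCl, MgCl2, BSA, DTT, tRNA and Tween-20. Steps lasted 0.8–1.5 h (lowest) to 10–20 min (highest). Titrations ran without input, with 200 uM small-molecule ligand, or with an oligonucleotide input. Normalised cluster fluorescence was curve-fitted, and apparent KD is the per-design median over clusters.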

[1] = input ligand: microRNA oligo, concentration not stated
[2] = Eterna round: R95, input ligand: FMN 200 uM
[3] = Eterna round: R95, input ligand: microRNA oligo, concentration not stated
[4] = Eterna round: R95, input ligand: none

| Sequence | apparent KD of MS2 coat protein (input ligand: FMN 200 uM) [nM] | apparent KD of MS2 coat protein [1] [nM] | apparent KD of MS2 coat protein (input ligand: none) [nM] | apparent KD of MS2 coat protein [2] [nM] | apparent KD of MS2 coat protein [3] [nM] | apparent KD of MS2 coat protein [4] [nM] |
| --- | --- | --- | --- | --- | --- | --- |
| GUGGUCAGACAUGAGGAUCACCCAUGUGGAAUAAAUAACACACAGGAUAUGGAAUAUAAAAUAUACCAGAAGGGUGGAUUGGUG (Eterna round: R96, puzzle: Same State NG 3) | 157 | 226 | 326 | – | – | – |
| GUGGUCAGACAUGAGGAUCACCCAUGUGGAAUAAAUAACGGACAGGAUAUAAAAUAUAGGAUAUAUUAGAAGGGUUGAUUGGUG (Eterna round: R96, puzzle: Same State NG 3) | 43.7 | 38.1 | 68.4 | – | – | – |
| GUGGUCAGACAUGAGGAUCACCCAUGUGGAAUAAAUAACGGACAGGAUAUAGAAUAUAGGAUAUACUAGAAGGGUUGAUUGGUG (Eterna round: R96, puzzle: Same State NG 3) | – | 45.1 | – | – | – | – |
| GUGGUCAGACAUGAGGAUCACCCAUGUGGAAUAAAUAACGUACAGGAUAUGGAAUAUAGGAUAUACUAGAAGGGUAGAUUGGUG (Eterna round: R96, puzzle: Same State NG 3) | 110 | 75.3 | 87.7 | – | – | – |
| GUGGUCAGACAUGAGGAUCACCCAUGUGGAAUAAAUAAGGAGAAGGAUAUGCAAUAUAGGAUAUAGUAGAAGGUCUGGUUGGUG (Eterna round: R96, puzzle: Same State NG 3) | – | 63.4 | – | – | – | – |
| GUGGUCAGACAUGAGGAUCACCCAUGUGGAAUAAAUAAGGAGAAGGAUAUUGAAUAUAGGAUAUACAAGAAGGUCUGGUUGGUG (Eterna round: R96, puzzle: Same State NG 3) | – | 71.3 | – | – | – | – |
| GUGGUCAGACAUGAGGAUCACCCAUGUGGAAUAAAUAAGGAUUAGGAUAUGGAAUAUAGGAUAUACCAGAAGGAAUGGUUGGUG (Eterna round: R96, puzzle: Same State NG 3) | – | 75.8 | – | – | – | – |
| GUGGUCAGACAUGAGGAUCACCCAUGUGGAAUAAAUAAGGGUUAGGAUAUGCAAUAUAGGAUAUAGCAGAAGGGAUGGUUGGUG (Eterna round: R96, puzzle: Same State NG 3) | – | 84.9 | – | – | – | – |
| GUGGUCAGACAUGAGGAUCACCCAUGUGGAAUAAAUAAGGUUUAGGAUAUGGAAUAUAGGAUAUACCAGAAGGAAAGGUUGGUG (Eterna round: R96, puzzle: Same State NG 3) | 176 | 75.4 | 133 | – | – | – |
| GUGGUGGGUUGAGGAUAUUGGUUGUUGUUGUUCUACAUGAGGAUCACCCAUGUGGGUUGUGGUUUUGAGAAGGUUGGUUGCUGG [salish99_SSNG2_r04_049] (Eterna round: R96, puzzle: Same State NG 2) | 45.2 | 31.3 | 42.8 | – | – | – |
| GUUAAACAUGAGGAUCACCCAUGUCAUCUAAGUCGAGGAUAUGGGAAUUAAUUAAUUAAACCAGAAGGCGAAAAUG [Mat - Same State 1 - D96] (puzzle: Same State 1) | – | – | – | 39 | 174 | 126 |
| GUUACAUGAGGAUCACCCAUGUAUGUGUGGGAGUAAGUGUCUUAGGAUAUCUAGUAUUAAAUUUAAGAGAAGGAAGAUUGUUGU [JMF's solution 57] (Eterna round: R96, puzzle: Same State NG 3) | 140 | 78.9 | 110 | – | – | – |
| GUUACAUGAGGAUCACCCAUGUAUGUGUGGGAGUAAGUGUCUUAGGAUAUCUAUGAUUUAAAUUAAGAGAAGGAAGAUUGUUGU [JMF's solution 11] (Eterna round: R96, puzzle: Same State NG 3) | – | 84.2 | – | – | – | – |
| GUUACAUGAGGAUCACCCAUGUAUGUGUGGGAGUAAGUGUCUUAGGAUAUCUAUUAUUUAAUUUGAGAGAAGGAAGAUUGUUGU [JMF's solution 28] (Eterna round: R96, puzzle: Same State NG 3) | 107 | 97.7 | 107 | – | – | – |
| GUUAUACAUGAGGAUCACCCAUGUCAAUGUAGUCGAGGAUAUGGGUUGCUAUGAGGCGUACUAGAAGGCGAGGAGU [JL-ss1-3.17 ViennaUCT mod] (puzzle: Same State 1) | – | – | – | 297 | 98.8 | 265 |
| GUUAUUUAUGCAGGAUAUGAUUAACAUGAGGAUCACCCAUGUGGUGUUGUGAGUAAGGAGAGUGAUCAGAAGGGCAUUUUUUUU [JMF's solution 77] (Eterna round: R96, puzzle: Same State NG 2) | 626 | 298 | 565 | – | – | – |
| GUUCGGAAUCGAGCUGACAUGAGGAUCACCCAUGUUAGUGGGAAGGAUAUGGUACAGAAACUGUACCAGAAGGUCUUACUGUCU (Eterna round: R96, puzzle: Same State NG 3) | 47 | 66.7 | 67.4 | – | – | – |

| Sequence | apparent KD of MS2 coat protein (input ligand: FMN 200 uM) [nM] | apparent KD of MS2 coat protein [1] [nM] | apparent KD of MS2 coat protein (input ligand: none) [nM] | apparent KD of MS2 coat protein [2] [nM] | apparent KD of MS2 coat protein [3] [nM] | apparent KD of MS2 coat protein [4] [nM] |
| --- | --- | --- | --- | --- | --- | --- |
| GUUGAGAAAUGAGGAUAUGCAUGGAAGACACAUGAGGAUCACCCAUGUGGGAGGGAAACCAGGAGGUAGAAGGCAUUGGGAAAC [AK SSNG2-V2-24] (Eterna round: R96, puzzle: Same State NG 2) | 35.7 | 35.5 | 55.1 | – | – | – |
| GUUUUUAGUGCAGGAUAUGAUCAACAUGAGGAUCACCCAUGUGGCGUUGUGAGUAGGGAGAGAGAUCAGAAGGGCGUCUCCGCG [SS-NG2-LRO13] (Eterna round: R96, puzzle: Same State NG 2) | 51.5 | 37 | 57.3 | – | – | – |
| UAAAAACAUGAGGAUCACCCAUGUCAAAAGACAUGAGGAUAUGUACAGACUUCGGUCUGUACAGAAGGCAUGAAAA [salish99_ss1_r3_094] (puzzle: Same State 1) | – | – | – | 33.3 | 503 | 362 |
| UAAACUUCUUUUAGUGUGUUGCGAGUGAAACAUGAGGAUCACCCAUGUAAAGGAUUGUGGUAUUUUGUUCGUCUUAA [JR_SHM208A_Sub075] (puzzle: Sensor for hsa-mir-208a) | – | – | – | 75.2 | 41.4 | 98.8 |
| UAAGAACAUGAGGAUCACCCAUGUGGAAAGAACACAGGAUAUCAUAGAAGGACGCGACUAUGAGAAGGGUGACACG [Lequat] (puzzle: Same State 1) | – | – | – | 390 | 104 | 218 |
| UAAUAAAAGGAUAUACAUGAGGAUCACCCAUGUCCGUCUGCCAAGGAUAUCUAGGAUCAAGCAGCAGAGAAGGUGGCACGCCAC [Eternabot solution 35] (Eterna round: R96, puzzle: Same State NG 3) | 22.3 | 17.2 | 18.3 | – | – | – |
| UAGAUUCACGUAGGAUAUCGACCUACAUGAGGAUCACCCAUGUUUUUGAAUAGAUUUUUUUGUUACGAGAAGGACGUUAUGUAU [JR_SSNG2_Sub064] (Eterna round: R96, puzzle: Same State NG 2) | 133 | 177 | 268 | – | – | – |
| UAGCAGUGCGGGUAGGAUAUGUAGGGUGGUACAUGAGGAUCACCCAUGUAUCCACCCUUCGACCGGCAGAAGGGCCUGUCACUGC [Edor] (Eterna round: R96, puzzle: Same State 2) | – | 13.2 | – | – | – | – |
| UAGUGAUUGCAAGGAUAUGCUUAUGUUUAAUUUUUUUUAAUAUCUAACAUGAGGAUCACCCAUGUGCAGAAGGUGCUUGAUUUG [JR_SSNG2_Sub075] (Eterna round: R96, puzzle: Same State NG 2) | – | 54.2 | – | – | – | – |
| UAUAAACAUGAGGAUCACCCAUGUAAUAAUAUGGGAGGAUAUCAGAAUGUAUUUAUGUAAUGAGAAGGCCUAAUAU [Mat - Same State 1 - Mod of Eli - D69] (puzzle: Same State 1) | – | – | – | 50.9 | 122 | 372 |
| UAUCCAUAGAUAGGAUAUCAGUAUACAUGAGGAUCACCCAUGUUAUAUUUGGUUUUAAUUUAGUCUGAGAAGGAUCUUGAUGAA [SameState NG2 #2] (Eterna round: R96, puzzle: Same State NG 2) | 14.7 | 11.9 | 15.3 | – | – | – |
| UAUCUCAUGUAAGGAUAUGCAGCCGUUUCGGCUGCAGAAGGUACUAUAAUACAUGAGGAUCACCCAUGUCUCUCGCAUUGCGAG [JL SSNG1 1.49] (Eterna round: R96, puzzle: Same State NG 1) | 186 | 150 | 293 | – | – | – |
| UAUUAGAUCCGAGGAUAUCCUUAUUAGAAACAUGAGGAUCACCCAUGUAAAGGGAAUUAUUUGUAGGAGAAGGCGGAUUUAGUU [JR_SSNG2_Sub056] (Eterna round: R96, puzzle: Same State NG 2) | – | 41.7 | – | – | – | – |
| UAUUAGAUCCGAGGAUAUCCUUUUUUCUUACAUGAGGAUCACCCAUGUAAAGGGAUUGAGUUGUAGGAGAAGGCGGAUUUAGUU [JR_SSNG2_Sub058] (Eterna round: R96, puzzle: Same State NG 2) | – | 24.1 | – | – | – | – |
| UCGUCCUCGUGCUAGGAUAUCCAUCGUAAAACAUGAGGAUCACCCAUGUAGAAAUGCGCCUACGAGGAGAAGGAGCGAUGUGGAU [Velemageer] (Eterna round: R96, puzzle: Same State 2) | – | 14 | – | – | – | – |
| UCUAGACAUGAGGAUCACCCAUGUCGAUAUGGCGCAGGAUAUCGGUACUCAUAGAGUACGCGAGAAGGGUGACUUC [Same State 1 - Mod of Vinnie Gere v.2] (puzzle: Same State 1) | – | – | – | – | 173 | – |
| UCUUGGUUUUUGCUCGUUUUUUGUGUUGAACAUGAGGAUCACCCAUGUAUUAUACGGUCCGGUUUAGUAGUGGUCCA [JMF 78] (puzzle: Sensor for hsa-mir-208a) | – | – | – | 86.1 | 83 | 113 |
